According to article PMC7984725 (Biochemistry, 2018):

Target: human linker histone H1.0 (human, UniProt P07305 1-194)
Test: ITC

Chain of human linker histone H1.0 (P07305 whole entry): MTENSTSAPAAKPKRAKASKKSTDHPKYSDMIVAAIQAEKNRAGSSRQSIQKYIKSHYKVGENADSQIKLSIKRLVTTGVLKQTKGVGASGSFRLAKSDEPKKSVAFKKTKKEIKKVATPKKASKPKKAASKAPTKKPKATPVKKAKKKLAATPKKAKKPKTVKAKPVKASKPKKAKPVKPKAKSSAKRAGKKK

- Kd: 460 nM
- stoichiometry N: 1
B1: prothymosin-α (ProTα) (natural protein, UniProt P06454 1-111, looked up)
chain: MSDAAVDTSSEITTKDLKEKKEVVEEAENGRDAPANGNAENEENGEQEADNEVDEEEEEGGEEEEEEEEGDGEEEDGDEDEEAESATGKRAAEDDEDDDVDTKKQKTDEDD
